From US20250144178A1 (KANAPH THERAPEUTICS, published 2025)

B1: T1.02 (anti-hu FAP/hu IL-12 mut1, hu IgG1 DANG) (bispecific antibody)
heavy: QVQLVQSGAEVKKPGASVKVSCKTSRYTFTEYTIHWVRQAPGQRLEWIGGINPNNGIPNYNQKFKGRVTITVDTSASTAYMELSSLRSEDTAVYYCARRRIAYGYDEGHAMDYWGQGTLVTVSSASTKGPSVFPLAPSSKSTSGGTAALGCLVKDYFPEPVTVSWNSGALTSGVHTFPAVLQSSGLYSLSSVVTVPSSSLGTQTYICNVNHKPSNTKVDKKVEPKSCDKTHTCPPCPAPELLGGPSVFLFPPKPKDTLMISRTPEVTCVVVAVSHEDPEVKFNWYVDGVEVHNAKTKPREEQYGSTYRVVSVLTVLHQDWLNGKEYKCKVSNKALPAPIEKTISKAKGQPREPQVYTLPPSRDELTKNQVSLWCLVKGFYPSDIAVEWESNGQPENNYKTTPPVLDSDGSFFLYSKLTVDKSRWQQGNVFSCSVMHEALHNHYTQKSLSLSPGK
light: not shown
chain: not shown
notes: Knob-in-hole heterodimer
B2: T1.12 (anti-hu FAP/null, hu IgG1 DANG) (antibody)
heavy: B1 heavy
light: not shown
chain: not shown
notes: One-armed anti-FAP antibody without IL-12; used as the control for IL-12 activity
B3: T1.03 (anti-hu FAP/hu IL-12 mut2, hu IgG1 DANG) (bispecific antibody)
heavy: B1 heavy
light: not shown
chain: not shown
notes: Knob-in-hole heterodimer
B4: T1.01 (anti-hu FAP/hu IL-12, hu IgG1 DANG) (bispecific antibody)
heavy: B1 heavy
light: not shown
chain: not shown
notes: Knob-in-hole heterodimer: one anti-FAP Fab arm and one single-chain human IL-12 (p40-linker-p35) Fc arm

Experiments:
[1] = target: IL-12 receptor of human T cells (human, UniProt P42701 24-662; Q99665 24-862); experiment: cell-based or functional assay
Sequence of IL-12 receptor of human T cells (Q99665 24-862, chain 2 of 2, other chains not shown): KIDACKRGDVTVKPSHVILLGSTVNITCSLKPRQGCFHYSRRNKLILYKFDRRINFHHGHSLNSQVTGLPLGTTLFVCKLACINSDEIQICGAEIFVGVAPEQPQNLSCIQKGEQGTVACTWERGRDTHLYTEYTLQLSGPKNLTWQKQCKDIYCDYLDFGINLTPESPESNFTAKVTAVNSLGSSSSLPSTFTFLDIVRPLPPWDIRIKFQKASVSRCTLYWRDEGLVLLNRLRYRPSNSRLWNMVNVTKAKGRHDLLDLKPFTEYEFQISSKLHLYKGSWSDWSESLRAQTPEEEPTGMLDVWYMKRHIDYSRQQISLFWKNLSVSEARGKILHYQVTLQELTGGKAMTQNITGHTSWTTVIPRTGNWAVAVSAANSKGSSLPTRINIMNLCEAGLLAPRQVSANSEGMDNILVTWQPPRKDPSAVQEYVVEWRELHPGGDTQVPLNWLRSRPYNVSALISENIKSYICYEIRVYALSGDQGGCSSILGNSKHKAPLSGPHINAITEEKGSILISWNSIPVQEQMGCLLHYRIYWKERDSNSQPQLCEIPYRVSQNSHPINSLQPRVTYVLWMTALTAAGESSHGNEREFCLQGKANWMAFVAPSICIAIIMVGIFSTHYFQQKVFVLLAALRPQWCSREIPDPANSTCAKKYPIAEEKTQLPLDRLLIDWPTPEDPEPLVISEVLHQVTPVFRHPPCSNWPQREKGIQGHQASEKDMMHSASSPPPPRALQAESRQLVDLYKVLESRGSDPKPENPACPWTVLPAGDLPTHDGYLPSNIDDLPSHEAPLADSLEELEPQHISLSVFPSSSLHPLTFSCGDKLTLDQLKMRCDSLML

[2] = target: T1, human FAP (fibroblast activation protein alpha) overexpressed in HEK293 cells (HEK293-hFAP) (human, UniProt Q12884 1-760); experiment: flow cytometry on HEK293-hFAP cells, detection with anti-human IgG antibody
T1 construct: whole, on cells; also called human FAP-expressing cell line
T1 sequence (looked up): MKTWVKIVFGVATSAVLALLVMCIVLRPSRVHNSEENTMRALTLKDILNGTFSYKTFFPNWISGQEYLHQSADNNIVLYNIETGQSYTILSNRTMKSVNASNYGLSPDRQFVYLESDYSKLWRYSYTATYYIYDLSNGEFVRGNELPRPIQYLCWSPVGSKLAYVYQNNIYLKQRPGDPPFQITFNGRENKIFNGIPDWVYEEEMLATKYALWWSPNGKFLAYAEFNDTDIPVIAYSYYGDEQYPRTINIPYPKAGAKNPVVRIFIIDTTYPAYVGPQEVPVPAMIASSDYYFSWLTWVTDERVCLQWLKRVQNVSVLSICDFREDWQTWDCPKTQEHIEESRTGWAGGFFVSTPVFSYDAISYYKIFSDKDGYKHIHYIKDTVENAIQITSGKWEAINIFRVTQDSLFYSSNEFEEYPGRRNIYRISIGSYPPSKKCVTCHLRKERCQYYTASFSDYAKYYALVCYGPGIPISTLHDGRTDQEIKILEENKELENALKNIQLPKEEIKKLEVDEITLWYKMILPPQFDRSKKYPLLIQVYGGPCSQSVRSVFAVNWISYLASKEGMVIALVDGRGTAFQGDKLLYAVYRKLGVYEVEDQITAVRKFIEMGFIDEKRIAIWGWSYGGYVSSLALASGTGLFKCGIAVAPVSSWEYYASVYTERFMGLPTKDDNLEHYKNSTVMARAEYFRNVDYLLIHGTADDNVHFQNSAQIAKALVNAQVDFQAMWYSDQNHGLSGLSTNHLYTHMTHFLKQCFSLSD
Method: (§1) Specifically, the cell line was prepared by suspending in a FACS buffer solution at 1×10⁵ cells/100 μl, and treated with 1 μg each of T1.12, T1.01, T1.02 and T1.03. The cells were washed twice with a FACS buffer solution. The cells were stained with an anti-human IgG antibody (Biolegend). The negative control was stained only with an anti-human IgG antibody (Biolegend). The expression rates of the stained cells were measured using BD LSR and analyzed using a FlowJo software.

[3] = target: T1, human FAP (fibroblast activation …); experiment: flow cytometry on HEK293-hFAP cells, 1 µg protein per 1x10^5 cells, anti-human IgG detection
Method: as §1

[4] = target: T2, IL-12 receptor beta 1-biotin (recombinant human IL-12 receptor protein) (human, UniProt P42701 24-545, limits assumed, biotin (site not stated)); experiment: ELISA, fusion protein coated in serial dilution, 1 nM IL-12Rβ1-biotin, streptavidin-HRP, OD at 450 nm
T2 construct: Bought reagent; also called IL-12Rβ1-Biotin
Method: (§2) (ii) The wells were washed with a wash solution, and then blocking was performed for 1 hour with 1% BSA (Bovine serum albumin, Sigma) solution.
(§3) (iii) The wells were washed with a wash solution, and then treated with 1 nM IL-12 receptor beta 1-biotin (IL-12Rβ1-Biotin; Acrobiosystems, Newark, USA) for 2 hours.
(§4) (iv) The wells were washed with a wash solution, and then treated with streptavidin-HRP for 20 minutes.

recombinant human FAP [5] = target: T3, recombinant human FAP (human, UniProt Q12884 26-760); experiment: SPR, fusion protein captured by anti-human IgG (Fc) on a CM5 chip, hFAP his as analyte 0.78125-50 nM, 1:1 binding model
T3 construct: Soluble analyte in SPR; The description calls FAP a homodimer; also called rhFAP
T3 sequence (looked up): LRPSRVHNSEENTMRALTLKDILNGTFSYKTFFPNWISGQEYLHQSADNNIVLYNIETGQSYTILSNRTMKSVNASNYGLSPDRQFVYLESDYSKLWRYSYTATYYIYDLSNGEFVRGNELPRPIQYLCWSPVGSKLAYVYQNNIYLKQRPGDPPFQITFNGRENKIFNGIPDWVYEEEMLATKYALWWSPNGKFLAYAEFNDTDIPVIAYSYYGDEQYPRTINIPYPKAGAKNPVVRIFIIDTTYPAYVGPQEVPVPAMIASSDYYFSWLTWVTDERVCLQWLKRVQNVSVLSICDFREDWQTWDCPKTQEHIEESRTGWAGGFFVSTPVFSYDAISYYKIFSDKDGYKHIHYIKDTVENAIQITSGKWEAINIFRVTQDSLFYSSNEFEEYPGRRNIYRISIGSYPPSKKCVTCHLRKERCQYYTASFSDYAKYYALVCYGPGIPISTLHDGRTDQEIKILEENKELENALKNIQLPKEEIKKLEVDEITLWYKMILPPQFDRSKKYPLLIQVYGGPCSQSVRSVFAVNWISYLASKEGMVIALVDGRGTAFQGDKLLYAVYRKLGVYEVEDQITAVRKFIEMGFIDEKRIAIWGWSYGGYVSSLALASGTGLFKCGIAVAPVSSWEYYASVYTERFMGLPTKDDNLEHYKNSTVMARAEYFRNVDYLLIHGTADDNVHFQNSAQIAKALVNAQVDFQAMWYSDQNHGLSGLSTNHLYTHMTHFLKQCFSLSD

[6] = target: T2, IL-12 receptor beta 1-biotin …; experiment: ELISA, protein coated in serial dilution, 1 nM IL-12Rβ1-biotin, streptavidin-HRP, OD at 450 nm
Method: as §2, §3, §4

recombinant human FAP [7] = target: T3, recombinant human FAP; experiment: SPR, fusion protein captured by anti-human IgG (Fc) on a CM5 chip, human FAP as analyte 1.5625-200 nM, 1:1 binding model
Method: Specifically, the surface of the CM5 chip was activated with a 1:1 mixture of […] NHS (N-hydroxysuccinimide) and […] EDC (1-Ethyl-3-(3-dimethylaminopropyl) carbodiimide), and 25 μg/ml of anti-human IgG (Fc) antibody was immobilized for 400 seconds at a rate of 10 μl/min. The remaining active ester groups were blocked with 1 M ethanolamine. T1.01, T1.02 and T1.03 were diluted to 2 μg/ml and reacted on the CM5 chip immobilized with the anti-human IgG (Fc) antibody. The recombinant human FAP was diluted to 200 nM in 1×HBS-EP+buffer solution and diluted by serial dilution. The diluted recombinant human FAP was reacted at a rate of 30 μl/min. The association and dissociation times were 180 seconds and 400 seconds, respectively. After the dissociation, stabilization was performed for 60 seconds, and then a regeneration was performed for 30 seconds with a 10 mM glycine pH 1.5 solution at a rate of 30 μl/min.

Binder	fold change of the p-STAT4 EC50 with low molecular weight heparin against without, activated human T cells [1]	half maximal effective concentration (EC50) of p-STAT4 (Tyr693), AlphaLISA, activated human T cells [1]	percent of cells in the positive gate (hFAP-PE) [2]	percent of cells bound [3]	EC50 (read off the curve) [4]	Kd (recombinant human FAP [5])	koff (recombinant human FAP [5])	kon (recombinant human FAP [5])	binding result [6]	Kd (recombinant human FAP [7])	koff (recombinant human FAP [7])	kon (recombinant human FAP [7])
B1	5.5 times	0.0565 nM	99.8%	≥ 99%	~20 nM	0.595 nM	0.000139 s⁻¹	235000 M⁻¹ s⁻¹				
B2			99.3%	≥ 99%					no binding (tested: 10^5 pM)			
B3	4 times	0.147 nM	99.3%	≥ 99%	~20 nM					1.3 nM	0.000124 s⁻¹	94900 M⁻¹ s⁻¹
B4	9.4 times	0.0145 nM	99.8%	≥ 99%	~20 nM	0.588 nM	0.000152 s⁻¹	258000 M⁻¹ s⁻¹				
